Assay results from publication PMC8287583, “Biochemical and Phylogenetic Characterization of a Novel NADP^+-Specific Isocitrate Dehydrogenase From the Marine Microalga Phaeodactylum tricornutum” (Frontiers in Molecular Biosciences, 2021).
Where a chain is given by its changes, count along the chain named. Numbers in names are those of the source. Blank lines part the entries; values can stand above or below the molecule they belong to.

How the values were obtained:
[1] = target: PtIDH2 V609L mutant (Phaeodactylum tricornutum CCAP 1055/1); test: SEC; mutant forms of PtIDH2, Superdex 200 (10/300), 0.5 ml/min; salt of the buffer not stated for this panel
[2] = target: PtIDH2 L742F mutant (Phaeodactylum tricornutum CCAP 1055/1); test: as above
[3] = target: PtIDH2 A718P mutant (Phaeodactylum tricornutum CCAP 1055/1); test: as above
[4] = target: Phaeodactylum tricornutum NADP+-specific isocitrate dehydrogenase 2 (PtIDH2), mature form without the signal and transit peptide (Phaeodactylum tricornutum CCAP 1055/1); test: SEC-MALS; Superdex 200 (10/300) Increase, 0.5 ml/min, 20 mM Tris-HCl, 10% glycerol, 300 mM NaCl, pH 7.5
[5] = target: Phaeodactylum tricornutum NADP+-specific isocitrate dehydrogenase 2 (PtIDH2), mature form without the signal and transit peptide (Phaeodactylum tricornutum CCAP 1055/1); test: SEC; Superdex 200 (10/300) Increase, 0.5 ml/min, 20 mM Tris-HCl, 10% glycerol, pH 7.5, 300 mM NaCl (low salt); calibrated with five protein standards
[6] = target: Phaeodactylum tricornutum NADP+-specific isocitrate dehydrogenase 2 (PtIDH2), mature form without the signal and transit peptide (Phaeodactylum tricornutum CCAP 1055/1); test: SEC; Superdex 200 (10/300) Increase, 0.5 ml/min, 20 mM Tris-HCl, 10% glycerol, pH 7.5, 1,000 mM NaCl (high salt); sample incubated in that buffer before chromatography; tetramer to dimers
[7] = substrate: NC(=O)c1ccc[n+]([C@@H]2O[C@H](COP(=O)(O)OP(=O)(O)OC[C@H]3O[C@@H](n4cnc5c(N)ncnc54)[C@H](OP(=O)(O)O)[C@@H]3O)[C@@H](O)[C@H]2O)c1; test: purified protein; assay type: biochemical, Phaeodactylum tricornutum; conditions: 50 mM Tris-HCl pH 8.0, 25 °C
[8] = substrate: O=C(O)CC(C(=O)O)C(O)C(=O)O; test: purified protein; assay type: biochemical, Phaeodactylum tricornutum; conditions: Mn2+ 2.0 mM, 0.5 mM NADP+ fixed, 50 mM Tris-HCl pH 8.0, 25 °C, DL-isocitrate used
[9] = substrate: NC(=O)c1ccc[n+]([C@@H]2O[C@H](COP(=O)(O)OP(=O)(O)OC[C@H]3O[C@@H](n4cnc5c(N)ncnc54)[C@H](O)[C@@H]3O)[C@@H](O)[C@H]2O)c1; test: purified protein; assay type: biochemical, Phaeodactylum tricornutum; conditions: DL-isocitrate, 50 mM Tris-HCl pH 8.0, 25 °C, metal not given (wild-type is the Mn2+ value)
[10] = Mn2+ 2.0 mM, 1.0 mM DL-isocitrate fixed
[11] = DL-isocitrate, metal not given (wild-type is the Mn2+ value)

Molecule: PtIDH2 V609L mutant (enzyme)
stoichiometry N [1]: 4

B1: PtIDH2 (Phaeodactylum tricornutum CCAP 1055/1) (protein)
chain: PPTSNHRHQPLEHARGSILYTETDEAPALATFSLYPVISKFSALANVDIVPCDISVAGRVLAAFPECLKPSQRVPDNLSYLGKKALEADCAIVKLPNISAPLNQLLECVNELRHKGYDVPLYPHEPSNVEETDVKHRYDKLMGSAVNPVLREGNSDRRVAAPVKAYAQKNPHRMGLWSKASRTHVAHMETGDFYETEQSAVMALPTSVSIVLATKNEGEIVLKAETPLEEGEVVDASRMSVKSLRDFYEREMQDAKDSELMLSLHLKATMMKVSDPIMFGHAIRVFFQDAFDKHGEVLASIGANPNGGLGSVYETIKSKLPADQAATIQADFEACFEDRPWLAMVDSDKGITNLHAPNDIIIDASMPVVVRDSGKMWNKLGELEDVKCLIPDRCYATMYQEVLSYVKTKGQFDVATMGSVANVGLMAKKAEEYGSHDKTFEIPSDGRVVVKDNNTGEVYFEHVVNAGDVWRMCQTKDVAIRDWVRLAVERARATGDRTIFWLDKRRAHDASLIKKVNTYLKDHDTDGLDISIMRPVDAVRISMERATDGKNTISVTGNVLRDYLTDLFPILELGTSAKMLSIVPLLAGGGLYETGAGGSAPKHVQQFVKEGHLRWDSLGEYLALAVALEGLADTAGNPKAKILGDCLNKAVGRILTNRKSPSRVVNQIDNRATNFYVSLYWADFLQQEDPSYKAIFESLTENRGKIVEEFSQCQGTAVDLGGYYLFDPAKTKAAMNPSPTLNKILSSFGPDMN
notes: mature form without putative signal and transit peptide (residues 1-58 of 811 removed), 753 residues, codon-optimized, 6xHis tag from pET-28b (NdeI/XhoI), E. coli Rosetta (DE3); ~80 kDa subunit (theoretical ~82 kDa), ~320 kDa homotetramer; N-term of insert after Met: FRSSTVL (from primer); C-term SSFGPDMN (from primers)
Km [7, 10]: 37.37 ± 4.02 µM
kcat [7, 10]: 119 ± 11 s⁻¹
kcat/Km [7, 10]: 3.22e+06 M⁻¹ s⁻¹
Km [8]: 42.69 ± 8.2 µM

B2: PtIDH2 (Phaeodactylum tricornutum CCAP 1055/1; H661L/R672D/R721S) (protein)
chain: B1 chain with H603L, R614D, R663S
notes: as for B1
Km [9]: 5,825 ± 307 μM
kcat [9]: 7.67 ± 1.04 s⁻¹
kcat/Km [9]: 1300 M⁻¹ s⁻¹
Km [7, 11]: 2,704 ± 142.8 μM
kcat [7, 11]: 1.01 ± 0.07 s⁻¹
kcat/Km [7, 11]: 400 M⁻¹ s⁻¹

B3: PtIDH2 (Phaeodactylum tricornutum CCAP 1055/1; H661L/R672D) (protein)
chain: B1 chain with H603L, R614D
notes: as for B1
Km [9]: 10,271 ± 1,448 μM
kcat [9]: 7.22 ± 0.6 s⁻¹
kcat/Km [9]: 700 M⁻¹ s⁻¹
Km [7, 11]: 47,650 ± 8,344 μM
kcat [7, 11]: 22.1 ± 5.5 s⁻¹
kcat/Km [7, 11]: 500 M⁻¹ s⁻¹

B4: PtIDH2 (Phaeodactylum tricornutum CCAP 1055/1; H661L/K660T/R672D/R721S) (protein)
chain: B1 chain with K602T, H603L, R614D, R663S
notes: as for B1
Km [9]: 11,479 ± 299 μM
kcat [9]: 2.25 ± 0.18 s⁻¹
kcat/Km [9]: 200 M⁻¹ s⁻¹

The next lines start with the values.

stoichiometry N [2]: 4
Molecule: PtIDH2 L742F mutant (enzyme)

stoichiometry N [3]: 4
Molecule: PtIDH2 A718P mutant (enzyme)

stoichiometry N [4]: 4
stoichiometry N [5]: 4
stoichiometry N [6]: 2
Molecule: Phaeodactylum tricornutum NADP+-specific isocitrate dehydrogenase 2 (PtIDH2), mature form without the signal and transit peptide (enzyme)
